Results taken from publication PMC5336313.

Assay: anti-Myc western blot of cell extracts and culture media
Details: glycan lost; control: wild-type C-terminally tagged full-length PEBP4

B1: human PEBP4 (hPEBP4): T171A (protein)
parent chain: MGWTMRLVTAALLLGLMMVVTGDEDENSPCAHEALLDEDTLFCQGLEVFYPELGNIGCKVVPDCNNYRQKITSWMEPIVKFPGAVDGATYILVMVDPDAPSRAEPRQRFWRHWLVTDIKGADLKKGKIQGQELSAYQAPSPPAHSGFHRYQFFVYLQEGKVISLLPKENKTRGSWKMDRFLNRFHLGEPEASTQFMTQNYQDSPTLQAPRERASEPKHKNQAEIAAC
In the case of B1, the expression_or_secretion is reported as “no change”.
